Assay: yeast display, Sf9 membrane polyspecificity reagent, FACS + sequencing; frameworks hold sequencing errors
In short: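 After 36–48 hours of galactose induction, yeast (Saccharomyces cerevisiae BJ5465) displaying a synthetic nanobody library were stained at 4 °C for 1 hour with 10% biotinylated, detergent-solubilized Sf9 membrane reagent. Streptavidin microbeads enriched the stained cells before FACS sorting into low and high (top ~1%) gates on anti-HA and streptavidin fluorescence. Each clone's polyreactivity label reflects its gate of origin.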

| Sequence | polyreactivity (PSR sort gate) |
| --- | --- |
| QVQLVESGGGLVQAGGSLRLSCAASGSTFNSYVMGWYRQAPGKERELVAAITSSGSTYYADSVKGRFTISRDNAKNTVYLQMNSLKPEDTAVYYCNAQDAWEWQGVWVGARDDYDYWGQGTQVTVSS | low polyreactivity |
| QVQLVESGGGLVQAGGSLRLSCAASGSTFNTYDMGWYRQAPGKERELVAAISFSDASTYYADSVKGRFTISRDNAKYTVYLQMNSLKPEDTAVYYCAADTRRITTVTTGEYGYWGQGTQVTVSS | low polyreactivity |
| QVQLVESGGGLVQAGGSLRLSCAASGSTFNVNAMGWYRQAPGKETEFVAAITYRGGRTYYADSVKGRFTISRDNEKNTVYLQMNSLKPEDTAVYYCAADGYRKRGFDYWGQGTQVTVSS | high polyreactivity |
| QVQLVESGGGLVQAGGSLRLSCAASGSTFNYNAMGWYRQAPGKERELVAAITGTGGDTYYADSVKGRITISRDNAKNTVYLQMNILKPEDTAVYYCDAEEDYWGQGTQVTLSS | low polyreactivity |
| QVQLVESGGGLVQAGGSLRLSCAASGSTFNYNAMGWYRQAPGKERELVATITTSGGSTYYADSVKGRFTISRDNAKNTVYLQMNSLKPEDTAVYYCAARYPWYRTIDRYDYWGQGTQVTVSS | low polyreactivity |
| QVQLVESGGGLVQAGGSLRLSCAASGSTFNYYAMGWYRPAPGKERELVAAISWSGGSTYYADSVKGRFTISRDNAKNTVYLQMNSLKPEDTAVYYCAAYPARPWARGDRRRIRFWGQGTQVTVSS | high polyreactivity |
| QVQLVESGGGLVQAGGSLRLSCAASGSTFNYYAMGWYRQAPGKERELVAAIDWSGGSTYYADSVKGRFTISRDNAKNTVYLQMNSLKPEDTAVYYCAARTYDYSYRSYDYWGQGTQVTVSS | low polyreactivity |
| QVQLVESGGGLVQAGGSLRLSCAASGSTFNYYTMGWYRQAPGKERELVAAISGRGSITYYADSVKGRFTISRDNAKNTVYLQMNSLKPEDTAVYYCNARYGRWQGSSGEHDYWGQGTQVTVSS | high polyreactivity |
| QVQLVESGGGLVQAGGSLRLSCAASGSTFPAYAMGWYRQAPGKERELVAVINLSGSTYYADSVKGRFTISRDNAKNTVYLQMNSLKPEDTAVYYCNARPYDYYRYGYWGQGTQVTVSS | low polyreactivity |
| QVQLVESGGGLVQAGGSLRLSCAASGSTFPDYAMGWYRQAPGKERELVAAISYRGGSTNYADSVKGRFTISRDNAKNTVYLQMNSLKPEDTAVYYCATDDYYPQPFYYEYDYWGQGSQVTVSS | low polyreactivity |
| QVQLVESGGGLVQAGGSLRLSCAASGSTFPGNAMGWYRQAPGKERELVASISGGGDSTYYADSVKGRFTISRDNAKNTVYLQMNSLKPEDTAVYYCAADYRQEPGYTGYYYWGQGTQLTVSS | low polyreactivity |
| QVQLVESGGGLVQAGGSLRLSCAASGSTFPGNSMGWYRQAPGKEMELVAAIDTSGGSTYYADSVKWRFTISRDNAKNTVYLQINSLKPEDTAVYYCAADYLIEMDYWGQGTQVTVSS | low polyreactivity |
| QVQLVESGGGLVQAGGSLRLSCAASGSTFPGYAMGWYRQAPGKERELVAAINWRGDSTYYADSVKGRFTISRDNAKNTVYLQMNSLKPEDTAVYYCAAKYNHVTDEYDYWGQGTQVTVSS | high polyreactivity |
| QVQLVESGGGLVQAGGSLRLSCAASGSTFPGYAMGWYRQAPGKERELVATISSGGSTNYADSVKGRFTISRDNAKNTVYLQMNSLKPEDTAVYYCAKLRSAKFRYGYWGQGTQVTVSS | low polyreactivity |
| QVQLVESGGGLVQAGGSLRLSCAASGSTFPGYDMGWYRQAPGKERELVAAISWRDGRTFYADSVKGRFTISRDNAKNTVYLQMNSLKPEDSAVYYCAAAQRTAYLTYSYKYNYWGQCTQVTVSS | high polyreactivity |
| QVQLVESGGGLVQAGGSLRLSCAASGSTFPIYAMGWYRQAPGKERELVASIRSGGSTYYADSVKGRFTMSRDNAKNTVYLQMNSLKPEDTAVYYCARRDYGVLNKGLGQEGDYWGQGTQVTVSS | low polyreactivity |
| QVQLVESGGGLVQAGGSLRLSCAASGSTFPKYAMGWYRQAPGKERELVASISVTTGSTYYADSVKGRFTISRDNAKNTVYLQMNSVKPEDTAVYYCAARRGWGDDYWGQGTQVTVSS | high polyreactivity |
| QVQLVESGGGLVQAGGSLRLSCAASGSTFPKYAMGWYRQAPGKERELVATISSGTRTYYADSVKGRFTISRDNAKNTVYLQMNSLKPEDTAVYYCAARYQPRKGAHYGYWGQGTQVTVSS | high polyreactivity |
| QVQLVESGGGLVQAGGSLRLSCAASGSTFPLNVMGWYRQAPGKERELVAAISSAGSTNYADSVKGRFTISRDNAKNTVYLQMNSLKPEDTAVYYCNADVRSTWYWLQYTPIYDYWGQGTQVTVSS | low polyreactivity |
| QVQLVESGGGLVQAGGSLRLSCAASGSTFPLYAMGWYRQAPGKERELVAAISSSGGSTYYADSVKGRFTISRDNAKNTVYLQMNNLKPEDTAVYYCAAAPTSYSGYGYWGQGTQVTVSS | low polyreactivity |
| QVQLVESGGGLVQAGGSLRLSCAASGSTFPNYPMGWNRQSPGKERELVAAITRSGRSTYYADSVKGRFTISRDNAKNTVYLQMNSLKPEDTGVYYCNAQHLARMDYWGQGTQVTVSS | high polyreactivity |
| QVQLVESGGGLVQAGGSLRLSCAASGSTFPPNAMGWYRQSPGKERELVAVISYSDGSTYYADSVKGRFTISRDNAKNTVYLQMNSLKPEDTAVYYCAAYCGYGGVSMYYWGQGTQVTVSS | low polyreactivity |

| Sequence | polyreactivity (PSR sort gate) |
| --- | --- |
| QVQLVESGGGLVQAGGSLRLSCAASGSTFPQNAMGWYRQAPGKERELVAAISRSGGRTYYADSVKGRFTISRDNAKNTVYLQMNILKPEDTAVYYCNAGFYQKYDYWGQGTQVTVSS | high polyreactivity |
| QVQLVESGGGLVQAGGSLRLSCAASGSTFPQYAMGRYRQAPGKERELVAAISRSGGSTYYADSVKGRFTISRDNAKNTVYLQMNSLKPEDTAVYYCNVKSGFWFYPTMDYWGQGTQVTVSS | high polyreactivity |
| QVQLVESGGGLVQAGGSLRLSCAASGSTFPRNAMGWYRQAAGKERELVAAISGRGVRTYYADSVKGRFTISRDNAKNTVYLQMNSLKPEDTAVHYCAAERQPYRTSSYNYWGQGTQVTVSS | high polyreactivity |
| QVQLVESGGGLVQAGGSLRLSCAASGSTFPRNAMGWYRQAPGKDRELVAAISGSGGTTYYADSVKGRFTISRDNAKNTVYLQMNSLKPEDTAVYYCAARTSWAYPGGNYWGHGTQVTVSS | low polyreactivity |
| QVQLVESGGGLVQAGGSLRLSCAASGSTFPRNAMGWYRQAPGKERELVAAISGRGVRTYYADSVKGRFTISRDNAKNTVHLQMNSLKPEDTAVYYCAASRGKGVGLAYDYWGQGTQVTVSS | high polyreactivity |
| QVQLVESGGGLVQAGGSLRLSCAASGSTFPRNAMGWYRQAPGKERELVAAISRSGGSTYYADSVKGRFTISRDNAKNTVYLQINSLKPEDTAVYYCAASYYGLPRYRYEYWGQGTQVTVSS | high polyreactivity |
| QVQLVESGGGLVQAGGSLRLSCAASGSTFPRNAMGWYRQAPGKERELVAAISYSGGRTYYADSVKGRLRISRDNAKNTVYLQMNSLKPDDTAVYYCAASPGVGDSRYYYWGQGTQVTVSS | high polyreactivity |
| QVQLVESGGGLVQAGGSLRLSCAASGSTFPRNAMGWYRQAPGKERELVAGISRGSSTNYADSVKGRFTISRDNAKNTVYLQMNSLKPEDTAVYYCAAALSVTARLDYWGQGTQVTVSS | low polyreactivity |
| QVQLVESGGGLVQAGGSLRLSCAASGSTFPRYAMGWYRQAPGKARELVAAINSSGSSTYYADSVKGRFTISRDNAKNTVYLQMNSLKPEDTAVYYCAAKARYRDYYYWGQGTQVTVSS | high polyreactivity |
| QVQLVESGGGLVQAGGSLRLSCAASGSTFPRYAMGWYRQAPGKERELVAAISRSGTSTYYADSVKGRFTISRDNAKNTVYLQMNSLKPEDTAVYYCAAEYHPRVLYPNWYDYWGQGTQVTVSS | low polyreactivity |
| QVQLVESGGGLVQAGGSLRLSCAASGSTFPRYAMGWYRQAPGKERELVAAISRSGTTTYYADSVKGRFTISRDNAKNTVYLQMNSLKPEDTAVYYCAKRHYARYDYWGQGTQVTVSS | high polyreactivity |
| QVQLVESGGGLVQAGGSLRLSCAASGSTFPRYAMGWYRQAPGKERELVAAITYSGGRTYYADSVKGRFTISRDNAKNTVYLQMNSLKPEDTAVYYCAARYGPYRFNPMGYWGQGTQVTVSS | high polyreactivity |
| QVQLVESGGGLVQAGGSLRLSCAASGSTFPRYAMGWYRQAPGKERELVASITSDGGSTYYADSVKGRFTISRDNAKNTVYLQMNSLKPEDTAVYYCNKVPYRGYRRYGYWGQGTQVTVSS | high polyreactivity |
| QVQLVESGGGLVQAGGSLRLSCAASGSTFPSNAMGWYRQAPGKERELVAALSRGGTTNYADSVKGRFTISRDNAKNTVYLQMNCLKPEDTAVYYCAKVYKLYWYKAYRRDYWGQGTQVTVSS | high polyreactivity |
| QVQLVESGGGLVQAGGSLRLSCAASGSTFPSYAMGWYRQAHGKERELVAAINSGGGTNYADSVKGRFTISRDNAKNTVYLQMHSLKPEDTAVYYCDKSRYDYTKTEGGYWGQATQVTVSS | low polyreactivity |
| QVQLVESGGGLVQAGGSLRLSCAASGSTFPSYAMGWYRQAPGKERELVASITSSGGSTYYADSVKGRFTISRDNAKNTVYLQMNSLKPEDTAVYYCNARRYYYSWGREGGYWGQGTQVTVSS | low polyreactivity |
| QVQLVESGGGLVQAGGSLRLSCAASGSTFPTYAMGRDRTAPGKEREMVAAIDWSDGSITYYADSVKGRFTISRDNAKNTVYLQMNSLKPEDTAVYYCAKDNSQYGWGYDYWGQGTQVTVSS | low polyreactivity |
| QVQLVESGGGLVQAGGSLRLSCAASGSTFPTYSMGWYRQAPGKERELVAAITSGSGTNTYYADSVKGRFTISRDNAKNTVYLQMNSLKPEDTAVYYCAKSFRKKYGWGQGTQVTVSS | high polyreactivity |
| QVQLVESGGGLVQAGGSLRLSCAASGSTFPVNAMGWYRQAPGKERELVAAISSRGSSTYYADSVKGRFTISRDNAKNTVYLQMNSLKPEDTAVYYCAAPQRYPRFYYWGQGTQVTVSS | high polyreactivity |
| QVQLVESGGGLVQAGGSLRLSCAASGSTFPVNAMGWYRQAPGKERELVAAITYRDGDTYYADSVKGRFTISRDNAKNTVYLEMHSLKPEDTAVYYCNADVGRHGKNRHMDYWGQGTQVTVSS | low polyreactivity |
| QVQLVESGGGLVQAGGSLRLSCAASGSTFPVNAMGWYRQAPGKERELVARIRGSGGSTYYADSVKGRFTISRDNAKNTVYLQMKSLKPEDTAVYYCAARYIGYSSYKYDYWGQGTQVTVSS | high polyreactivity |

— the nanobody polyreactivity screen of Harvey et al. (2022)
